Measurements reported in patent US20260034194A1, “PHARMACEUTICAL COMPOSITIONS AND METHODS OF TREATING PSP” (priority 2022, published 2026).
Read-outs that look alike come from different tables or passages of the source.

B1: I782A: RcSxph STX binding pocket mutant I782A (protein)
chain: MAPTFQTALFFTIISLSFAAPNAKQVRWCAISDLEQKKCNDLVGSCNVPDITLVCVLRSSTEDCMTAIKDGQADAMFLDSGEVYEASKDPYNLKPIIAEPYSSNRDLQKCLKERQQALAKKMIGHYIPQCDEKGNYQPQQCHGSTGHCWCVNAMGEKISGTNTPPGQTRATCERHELPKCLKERQVALGGDEKVLGRFVPQCDEKGNYEPQQFHGSTGYSWCVNAIGEEIAGTKTPPGKIPATCQKHDLVTTCHYAVAMVKKSSAFQFNQLKGKRSCHSGVSKTDGWKALVTVLVEKKLLSWDGPAKESIQRAMSKFFSVSCIPGATQTNLCKQCKGEEGKNCKNSHDEPYYGNYGAFRCLKEDMGDVAFLRSTALSDEHSEVYELLCPDNTRKPLNKYKECNLGTVPAGTVVTRKISDKTEDINNFLMEAQKRQCKLFSSAHGKDLMFDDSTLQLALLSSEVDAFLYLGVKLFHAMKALTGDAHLPSKNKVRWCTINKLEKMKCDDWSAVSGGAIACTEASCPKGCVKQILKGEADAVKLEVQYMYEALMCGLLPAVEEYHNKDDFGPCKTPGSPYTDFGTLRAVALVKKSNKDINWNNIKGKKSCHTGVGDIAGWVIPVSLIRRQNDNSDIDSFFGESCAPGSDTKSNLCKLCIGDPKNSAANTKCSLSDKEAYYGNQGAFRCLVEKGDVAFVPHTVVFENTDGKNPAVWAKNLKSEDFELLCLDGSRAPVSNYKSCKLSGIPPPAIVTREESISDVVRIVANQQSLYGRKGFEKDMFQLFSSNKGNNLLFNDNTQCLATFDRQPKDIMEDYFGKPYYTTVYGASRSAMSSELISACTIKHC
B2: E540A: RcSxph STX binding pocket mutant E540A (protein)
chain: MAPTFQTALFFTIISLSFAAPNAKQVRWCAISDLEQKKCNDLVGSCNVPDITLVCVLRSSTEDCMTAIKDGQADAMFLDSGEVYEASKDPYNLKPIIAEPYSSNRDLQKCLKERQQALAKKMIGHYIPQCDEKGNYQPQQCHGSTGHCWCVNAMGEKISGTNTPPGQTRATCERHELPKCLKERQVALGGDEKVLGRFVPQCDEKGNYEPQQFHGSTGYSWCVNAIGEEIAGTKTPPGKIPATCQKHDLVTTCHYAVAMVKKSSAFQFNQLKGKRSCHSGVSKTDGWKALVTVLVEKKLLSWDGPAKESIQRAMSKFFSVSCIPGATQTNLCKQCKGEEGKNCKNSHDEPYYGNYGAFRCLKEDMGDVAFLRSTALSDEHSEVYELLCPDNTRKPLNKYKECNLGTVPAGTVVTRKISDKTEDINNFLMEAQKRQCKLFSSAHGKDLMFDDSTLQLALLSSEVDAFLYLGVKLFHAMKALTGDAHLPSKNKVRWCTINKLEKMKCDDWSAVSGGAIACTEASCPKGCVKQILKGEADAVKLEVQYMYEALMCGLLPAVAEYHNKDDFGPCKTPGSPYTDFGTLRAVALVKKSNKDINWNNIKGKKSCHTGVGDIAGWVIPVSLIRRQNDNSDIDSFFGESCAPGSDTKSNLCKLCIGDPKNSAANTKCSLSDKEAYYGNQGAFRCLVEKGDVAFVPHTVVFENTDGKNPAVWAKNLKSEDFELLCLDGSRAPVSNYKSCKLSGIPPPAIVTREESISDVVRIVANQQSLYGRKGFEKDMFQLFSSNKGNNLLFNDNTQCLITFDRQPKDIMEDYFGKPYYTTVYGASRSAMSSELISACTIKHC
B3: P727A: RcSxph STX binding pocket mutant P727A (protein)
chain: MAPTFQTALFFTIISLSFAAPNAKQVRWCAISDLEQKKCNDLVGSCNVPDITLVCVLRSSTEDCMTAIKDGQADAMFLDSGEVYEASKDPYNLKPIIAEPYSSNRDLQKCLKERQQALAKKMIGHYIPQCDEKGNYQPQQCHGSTGHCWCVNAMGEKISGTNTPPGQTRATCERHELPKCLKERQVALGGDEKVLGRFVPQCDEKGNYEPQQFHGSTGYSWCVNAIGEEIAGTKTPPGKIPATCQKHDLVTTCHYAVAMVKKSSAFQFNQLKGKRSCHSGVSKTDGWKALVTVLVEKKLLSWDGPAKESIQRAMSKFFSVSCIPGATQTNLCKQCKGEEGKNCKNSHDEPYYGNYGAFRCLKEDMGDVAFLRSTALSDEHSEVYELLCPDNTRKPLNKYKECNLGTVPAGTVVTRKISDKTEDINNFLMEAQKRQCKLFSSAHGKDLMFDDSTLQLALLSSEVDAFLYLGVKLFHAMKALTGDAHLPSKNKVRWCTINKLEKMKCDDWSAVSGGAIACTEASCPKGCVKQILKGEADAVKLEVQYMYEALMCGLLPAVEEYHNKDDFGPCKTPGSPYTDFGTLRAVALVKKSNKDINWNNIKGKKSCHTGVGDIAGWVIPVSLIRRQNDNSDIDSFFGESCAPGSDTKSNLCKLCIGDPKNSAANTKCSLSDKEAYYGNQGAFRCLVEKGDVAFVPHTVVFENTDGKNPAVWAKNLKSEDFELLCLDGSRAPVSNYKSCKLSGIPAPAIVTREESISDVVRIVANQQSLYGRKGFEKDMFQLFSSNKGNNLLFNDNTQCLITFDRQPKDIMEDYFGKPYYTTVYGASRSAMSSELISACTIKHC

Legend:
[1] = Thermofluor (TF) assay of STX binding; settings: 1.1 μM Sxph, 0-20 μM STX; ΔTm at 20 μM toxin
[2] = assay type: binding; settings: for Kd: FP; for ΔΔG: ΔΔG = RT ln(Kd mutant or XSxph/Kd RcSxph), T = 298K, FP with F-STX
[3] = tested on: Phyllobates terribilis NaV1.4 (PtNaV1.4); experiment: Two-electrode voltage clamp: Sxph rescue of PtNaV1.4 from STX block in Xenopus oocytes; assay type: cell-based; settings: [Sxph]:[STX] ratio, 100 nM STX, PtNaV1.4 in Xenopus oocytes
[4] = assay type: binding; settings: ITC, STX, 25° C.
Experimental: . […] In almost all mutants, binding affinity loss correlated with a reduction in enthalpy, consistent with a loss of interactions (Table S2). […]. […] Together, these three assays (FIGS. 1E and G) provide a robust and versatile suite of options for characterizing STX:Sxph interactions.
ITC measurements were performed at 25° C. using a MicroCal PEAQ-ITC calorimeter (Malvern Panalytical). […]. This STX stock was diluted with the SEC buffer to prepare 100 μM or 300 μM STX solutions having a final buffer composition of 135 mM NaCl, 9 mM HEPES, pH 7.4. […]. The calorimetric experiment settings were: reference power, 5 μcal/s; spacing between injections, 150 s; stir speed 750 rpm; and feedback mode, high. Data were analyzed using MicroCal PEAQ-ITC Analysis Software (Malvern Panalytical) using a single binding site model. The heat of dilution from titrations of 100 μM STX in 135 mM NaCl, 9 mM HEPES, pH 7.4 into 135 mM NaCl, 9 mM HEPES, pH 7.4 was subtracted from each experiment to correct the baseline.

[5] = 1 nM F-STX, 25° C., errors S.D.

Row | Molecule | ΔTm (STX-induced change of melting temperature) [1] | Kd [2, 5] | ΔΔG [2] | Effective Rescue Ratio50 (ERR50) [3] | Kd ([2]; F-STX) | Kd [4] | ΔG [4] | ΔH [4] | ΔS (cal mol^−1 K^−1) [4]
1 | B1 | DTm increases relative to wild-type | 0.003 ± 0.0008 µM | -0.53 kcal/mol | 0.87±0.02 | – | – | – | – | –
2 | B2 | complete loss of the thermal shift | 15.3 ± 4.13 µM | 4.52 kcal/mol | eliminated | 15.3 µM | – | – | – | –
3 | B3 | – | 0.0569 ± 0.0121 µM | 1.21 kcal/mol | > 4 | – | 31.3 ± 11.6 nM | -10.3 ± 0.2 kcal/mol | -11.5 ± 0.0 kcal/mol | −4.2 ± 0.9 cal mol^−1 K^−1
